# Experimental data taken from US9266940 (Novo Nordisk, dated 2016).
# Numbered stars: 1 amine (or outer) side, 2 acyl side, 3 side chain; on linkers, the order of the positions; unused ones are H or OH. Square brackets hold non-standard residues; d marks the D form. Side chains are listed from the residue outwards. Ends that are not written are not given here. * marks the point of attachment. Decanoyl(10-(4-HOOC-PhO)) = O=C(O)c1ccc(OCCCCCCCCCC(=O)*)cc1; d(γGlu) = O=C(O)[C@@H](CCC(=O)[*:2])N[*:1]; γGlu = O=C(O)[C@H](CCC(=O)[*:2])N[*:1]; C14 diacid = O=C(O)CCCCCCCCCCCCC(=O)*; AEEA = NCCOCCOCC(=O)O; Aib = CC(C)(N)C(=O)O
# Assays:
# human GLP-1 receptor [1] = target: T1, human GLP-1 receptor (human, UniProt P43220 24-463); assay: cell-based or functional assay
# human GLP-1 receptor [2] = target: T1, human GLP-1 receptor; assay: SPA displacement assay; IC50 at 2.0% HSA over IC50 at 0.001% HSA
# Procedure: (§1) A shift in the binding affinity, $IC50$, is an indication that the peptide in question binds to albumin, and thereby a prediction of a potential protracted pharmacokinetic profile of the peptide in question in animal models.
# (§2) 50 ul (micro liter) HSA ("high albumin" experiment containing 2% HSA), or buffer ("low albumin" experiment containing 0.001% HSA), was added to Optiplate, and 25 ul of test compounds were added. 5-10 ug membrane protein/sample was added (50 ul) corresponding to 0.1-0.2 mg protein/ml (to be preferably optimised for each membrane preparation). SPA-particles (Wheatgerm agglutinin SPA beads, Perkin Elmer, #RPNQ0001) were added in an amount of 0.5 mg/well (50 ul). […] The plates were sealed with PlateSealer and incubated for 120 minutes at 30° C. while shaking. The plates were centrifuged (1500 rpm, 10 min) and counted in Topcounter.
# human GLP-1 receptor [3] = target: T1, human GLP-1 receptor; assay: SPA, displacement of 125I-GLP-1(7-36)NH2 from hGLP-1R BHK membranes, high HSA (2.0%)
# Procedure: as §1, §2
# human GLP-1 receptor [4] = target: T1, human GLP-1 receptor; assay: SPA, displacement of 125I-GLP-1(7-36)NH2 from hGLP-1R BHK membranes, low HSA (0.001%)
# Procedure: as §1, §2
binder,measurement,setting,value
H[Aib]EGTFTSDVSSYLEK([AEEA-AEEA-γGlu-C14 diacid])QAVRK([AEEA-AEEA-γGlu-C14 diacid])FIAHLVRGRG,"EC50/pM (in vitro potency, cAMP formation, AlphaScreen)",human GLP-1 receptor [1],9 pM
same,Ratio [(IC50/nM) high HSA]/[(IC50/nM) low HSA],human GLP-1 receptor [2],174
same,IC50,human GLP-1 receptor [3],21 nM
same,IC50,human GLP-1 receptor [4],0.12 nM
H[Aib]EGTFTSDVSSYLEGQAVRK([AEEA-AEEA-γGlu-C14 diacid])FIAHLVQGRK([AEEA-AEEA-γGlu-C14 diacid]) (also called 15),"EC50/pM (in vitro potency, cAMP formation, AlphaScreen)",human GLP-1 receptor [1],5 pM
same,Ratio [(IC50/nM) high HSA]/[(IC50/nM) low HSA],human GLP-1 receptor [2],155
same,IC50,human GLP-1 receptor [3],29 nM
same,IC50,human GLP-1 receptor [4],0.19 nM
HAEGTFTSDVSSYLEEQK([γGlu-AEEA-AEEA-C14 diacid])ARK([γGlu-AEEA-AEEA-C14 diacid])FIAHLVG (also called 22),"EC50/pM (in vitro potency, cAMP formation, AlphaScreen)",human GLP-1 receptor [1],1180 pM
same,Ratio [(IC50/nM) high HSA]/[(IC50/nM) low HSA],human GLP-1 receptor [2],87
same,IC50,human GLP-1 receptor [3],812 nM
same,IC50,human GLP-1 receptor [4],9.31 nM
HAEGTFTSDVSSYLEEQK([γGlu-AEEA-AEEA-C14 diacid])VRK([γGlu-AEEA-AEEA-C14 diacid])FIAWLVG (also called 30),"EC50/pM (in vitro potency, cAMP formation, AlphaScreen)",human GLP-1 receptor [1],3000 pM
same,Ratio [(IC50/nM) high HSA]/[(IC50/nM) low HSA],human GLP-1 receptor [2],134
same,IC50,human GLP-1 receptor [3],> 1000 nM
same,IC50,human GLP-1 receptor [4],7.44 nM
HAEGTFTSDVSSYLEEQK([AEEA-AEEA-γGlu-C14 diacid])VRK([AEEA-AEEA-γGlu-C14 diacid])FIAWLVG (also called 27),"EC50/pM (in vitro potency, cAMP formation, AlphaScreen)",human GLP-1 receptor [1],835 pM
same,Ratio [(IC50/nM) high HSA]/[(IC50/nM) low HSA],human GLP-1 receptor [2],97
same,IC50,human GLP-1 receptor [3],> 1000 nM
same,IC50,human GLP-1 receptor [4],10.3 nM
HAEGTFTSDVSSYLEK([γGlu-AEEA-AEEA-C14 diacid])QAARK([γGlu-AEEA-AEEA-C14 diacid])FIAHLVG (also called 14),"EC50/pM (in vitro potency, cAMP formation, AlphaScreen)",human GLP-1 receptor [1],42 pM
same,Ratio [(IC50/nM) high HSA]/[(IC50/nM) low HSA],human GLP-1 receptor [2],306
same,IC50,human GLP-1 receptor [3],443 nM
same,IC50,human GLP-1 receptor [4],1.45 nM
HAEGTFTSDVSSYLEGQAARK([AEEA-AEEA-γGlu-Decanoyl(10-(4-HOOC-PhO))])FIEWLVRGK([AEEA-AEEA-γGlu-Decanoyl(10-(4-HOOC-PhO))])GE,"EC50/pM (in vitro potency, cAMP formation, AlphaScreen)",human GLP-1 receptor [1],96 pM
same,Ratio [(IC50/nM) high HSA]/[(IC50/nM) low HSA],human GLP-1 receptor [2],246
same,IC50,human GLP-1 receptor [3],123 nM
same,IC50,human GLP-1 receptor [4],0.5 nM
HAEGTFTSDVSSYLEGQAVRK([AEEA-AEEA-γGlu-Decanoyl(10-(4-HOOC-PhO))])FIEWLVQGK([AEEA-AEEA-γGlu-Decanoyl(10-(4-HOOC-PhO))])GE (also called 13),"EC50/pM (in vitro potency, cAMP formation, AlphaScreen)",human GLP-1 receptor [1],79 pM
same,Ratio [(IC50/nM) high HSA]/[(IC50/nM) low HSA],human GLP-1 receptor [2],804
same,IC50,human GLP-1 receptor [3],201 nM
same,IC50,human GLP-1 receptor [4],0.25 nM
HAEGTFTSDVSSYLEGQAAHK([AEEA-AEEA-γGlu-Decanoyl(10-(4-HOOC-PhO))])FIEWLVRGK([AEEA-AEEA-γGlu-Decanoyl(10-(4-HOOC-PhO))])GE (also called 10),"EC50/pM (in vitro potency, cAMP formation, AlphaScreen)",human GLP-1 receptor [1],214 pM
same,Ratio [(IC50/nM) high HSA]/[(IC50/nM) low HSA],human GLP-1 receptor [2],70
same,IC50,human GLP-1 receptor [3],452 nM
same,IC50,human GLP-1 receptor [4],6.49 nM
HAEGTFTSDVSSYLEGQAVRK([AEEA-AEEA-γGlu-Decanoyl(10-(4-HOOC-PhO))])FIEWLVRGK([AEEA-AEEA-γGlu-Decanoyl(10-(4-HOOC-PhO))])GQ (also called 12),"EC50/pM (in vitro potency, cAMP formation, AlphaScreen)",human GLP-1 receptor [1],41 pM
same,Ratio [(IC50/nM) high HSA]/[(IC50/nM) low HSA],human GLP-1 receptor [2],453
same,IC50,human GLP-1 receptor [3],72 nM
same,IC50,human GLP-1 receptor [4],0.16 nM
HAEGTFTSDVSSYLEEQAAHK([AEEA-AEEA-γGlu-Decanoyl(10-(4-HOOC-PhO))])FIEWLVRGK([AEEA-AEEA-γGlu-Decanoyl(10-(4-HOOC-PhO))])GE (also called 21),"EC50/pM (in vitro potency, cAMP formation, AlphaScreen)",human GLP-1 receptor [1],52 pM
same,Ratio [(IC50/nM) high HSA]/[(IC50/nM) low HSA],human GLP-1 receptor [2],163
same,IC50,human GLP-1 receptor [3],256 nM
same,IC50,human GLP-1 receptor [4],1.57 nM
HAEGTFTSDVSSYLEEQAVRK([AEEA-AEEA-γGlu-Decanoyl(10-(4-HOOC-PhO))])FIAWLVRGRK([AEEA-AEEA-γGlu-Decanoyl(10-(4-HOOC-PhO))]),"EC50/pM (in vitro potency, cAMP formation, AlphaScreen)",human GLP-1 receptor [1],143 pM
same,Ratio [(IC50/nM) high HSA]/[(IC50/nM) low HSA],human GLP-1 receptor [2],217
same,IC50,human GLP-1 receptor [3],33 nM
same,IC50,human GLP-1 receptor [4],0.15 nM
HAEGTFTSDVSSYLEGQAVRK([AEEA-AEEA-γGlu-C14 diacid])FIAHLVQGRK([AEEA-AEEA-γGlu-C14 diacid]) (also called 16),"EC50/pM (in vitro potency, cAMP formation, AlphaScreen)",human GLP-1 receptor [1],21 pM
same,Ratio [(IC50/nM) high HSA]/[(IC50/nM) low HSA],human GLP-1 receptor [2],127
same,IC50,human GLP-1 receptor [3],25 nM
same,IC50,human GLP-1 receptor [4],0.2 nM
HAEGTFTSDVSSYLEEQAARK([AEEA-AEEA-γGlu-Decanoyl(10-(4-HOOC-PhO))])FIAWLVRGRK([AEEA-AEEA-γGlu-Decanoyl(10-(4-HOOC-PhO))]),"EC50/pM (in vitro potency, cAMP formation, AlphaScreen)",human GLP-1 receptor [1],26 pM
same,Ratio [(IC50/nM) high HSA]/[(IC50/nM) low HSA],human GLP-1 receptor [2],219
same,IC50,human GLP-1 receptor [3],42 nM
same,IC50,human GLP-1 receptor [4],0.19 nM
HAEGTFTSDVSSYLEK([γGlu-AEEA-AEEA-C14 diacid])QAVRK([γGlu-AEEA-AEEA-C14 diacid])FIEWLVQGRG (also called 20),"EC50/pM (in vitro potency, cAMP formation, AlphaScreen)",human GLP-1 receptor [1],67 pM
same,Ratio [(IC50/nM) high HSA]/[(IC50/nM) low HSA],human GLP-1 receptor [2],1750
same,IC50,human GLP-1 receptor [3],333 nM
same,IC50,human GLP-1 receptor [4],0.19 nM
HAEGTFTSDVSSYLEEQK([AEEA-AEEA-γGlu-C14 diacid])VRK([AEEA-AEEA-γGlu-C14 diacid])FIAHLVRGRG (also called 24),"EC50/pM (in vitro potency, cAMP formation, AlphaScreen)",human GLP-1 receptor [1],70 pM
same,Ratio [(IC50/nM) high HSA]/[(IC50/nM) low HSA],human GLP-1 receptor [2],18
same,IC50,human GLP-1 receptor [3],50 nM
same,IC50,human GLP-1 receptor [4],2.74 nM
HAEGTFTSDVSSYLEGQAVRK([AEEA-AEEA-γGlu-γGlu-Decanoyl(10-(4-HOOC-PhO))])FIAWLVQGK([AEEA-AEEA-γGlu-γGlu-Decanoyl(10-(4-HOOC-PhO))])G (also called 23),"EC50/pM (in vitro potency, cAMP formation, AlphaScreen)",human GLP-1 receptor [1],140 pM
same,Ratio [(IC50/nM) high HSA]/[(IC50/nM) low HSA],human GLP-1 receptor [2],47
same,IC50,human GLP-1 receptor [3],40 nM
same,IC50,human GLP-1 receptor [4],0.85 nM
HAEGTFTSDVSSYLEGQAVRK([γGlu-AEEA-AEEA-d(γGlu)-Decanoyl(10-(4-HOOC-PhO))])FIAWLVQGK([γGlu-AEEA-AEEA-d(γGlu)-Decanoyl(10-(4-HOOC-PhO))])G (also called 26),"EC50/pM (in vitro potency, cAMP formation, AlphaScreen)",human GLP-1 receptor [1],200 pM
same,Ratio [(IC50/nM) high HSA]/[(IC50/nM) low HSA],human GLP-1 receptor [2],143
same,IC50,human GLP-1 receptor [3],54 nM
same,IC50,human GLP-1 receptor [4],0.38 nM
HAEGTFTSDVSSYLEEQK([AEEA-AEEA-γGlu-Decanoyl(10-(4-HOOC-PhO))])VRK([AEEA-AEEA-γGlu-Decanoyl(10-(4-HOOC-PhO))])FIAWLVRGRG (also called 28),"EC50/pM (in vitro potency, cAMP formation, AlphaScreen)",human GLP-1 receptor [1],68 pM
same,Ratio [(IC50/nM) high HSA]/[(IC50/nM) low HSA],human GLP-1 receptor [2],144
same,IC50,human GLP-1 receptor [3],29 nM
same,IC50,human GLP-1 receptor [4],0.2 nM
HAEGTFTSDVSSYLEEEAVRK([AEEA-AEEA-γGlu-C14 diacid])FIAHLVQGRK([AEEA-AEEA-γGlu-C14 diacid]) (also called 17),"EC50/pM (in vitro potency, cAMP formation, AlphaScreen)",human GLP-1 receptor [1],17 pM
same,Ratio [(IC50/nM) high HSA]/[(IC50/nM) low HSA],human GLP-1 receptor [2],387
same,IC50,human GLP-1 receptor [3],174 nM
same,IC50,human GLP-1 receptor [4],0.45 nM
HAEGTFTSDVSSYLEK([AEEA-AEEA-γGlu-C14 diacid])QAVRK([AEEA-AEEA-γGlu-C14 diacid])FIEWLVQGRG (also called 11),"EC50/pM (in vitro potency, cAMP formation, AlphaScreen)",human GLP-1 receptor [1],81 pM
same,Ratio [(IC50/nM) high HSA]/[(IC50/nM) low HSA],human GLP-1 receptor [2],926
same,IC50,human GLP-1 receptor [3],213 nM
same,IC50,human GLP-1 receptor [4],0.23 nM
H[Aib]EGTK([AEEA-AEEA-γGlu-C14 diacid])TSDVSSYLEEQAARK([AEEA-AEEA-γGlu-C14 diacid])FIAHLVQGRG (also called 18),"EC50/pM (in vitro potency, cAMP formation, AlphaScreen)",human GLP-1 receptor [1],3020 pM
same,Ratio [(IC50/nM) high HSA]/[(IC50/nM) low HSA],human GLP-1 receptor [2],2.1
same,IC50,human GLP-1 receptor [3],789 nM
same,IC50,human GLP-1 receptor [4],373 nM
H[Aib]EGTFTSDVSSYLEK([AEEA-AEEA-γGlu-C14 diacid])QAARK([AEEA-AEEA-γGlu-C14 diacid])FIAHLVG (also called 19),"EC50/pM (in vitro potency, cAMP formation, AlphaScreen)",human GLP-1 receptor [1],52 pM
same,Ratio [(IC50/nM) high HSA]/[(IC50/nM) low HSA],human GLP-1 receptor [2],60
same,IC50,human GLP-1 receptor [3],143 nM
same,IC50,human GLP-1 receptor [4],2.38 nM
